Reference: article PMC5057103, “Crystal structure of a DNA aptamer bound to PvLDH elucidates novel single-stranded DNA structural elements for folding and recognition”

What was measured:
PvLDH = PvLDH (Plasmodium vivax, UniProt Q4PRK9 1-316); test: X-ray crystal structure; details: protein: recombinant; tags: His-tag (pET28a, Histrap); chain copies: 2
hLDH-A = hLDH-A (Homo sapiens, UniProt P00338 2-332); test: EMSA; with or without Mg2+ and EDTA; EMSA: 20 mM HEPES pH 8.0, 5% glycerol, 50 mM NaCl, 5 mM KCl, 5 mM MgCl2 (or none), 5 mM DTT, 10 pmol DNA + 200 pmol protein in 20 ul, 1 h room temperature, gel
hLDH-B = hLDH-B (Homo sapiens, UniProt P07195 2-334); test: as above; details: protein: commercial; chain copies: 4; hairpin with bulge; stem I T3-A34 to A6-T31, stem II G16-C30 to G20-C26, hairpin-bulge contact A22-T12, A21-T13
Chain of hLDH-B (P07195 2-334): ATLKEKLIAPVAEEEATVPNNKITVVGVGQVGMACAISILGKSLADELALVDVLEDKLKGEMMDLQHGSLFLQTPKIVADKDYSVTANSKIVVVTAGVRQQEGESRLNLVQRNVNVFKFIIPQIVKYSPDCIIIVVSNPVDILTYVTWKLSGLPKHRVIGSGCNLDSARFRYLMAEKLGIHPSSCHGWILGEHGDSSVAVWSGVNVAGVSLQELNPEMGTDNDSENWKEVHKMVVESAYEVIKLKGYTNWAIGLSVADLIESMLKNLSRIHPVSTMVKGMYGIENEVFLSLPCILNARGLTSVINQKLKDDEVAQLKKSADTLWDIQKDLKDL

B1: pL1 (structured_DNA)
DNA: GTTCGATTGGATTGTGCCGGAAGTGCTGGCTCGAAC
PvLDH
  binding result: binds
hLDH-A
  binding result: no binding
hLDH-B
  binding result: no binding
